This assay has as its target methemoglobin (Homo sapiens, UniProt P69905). Kind of assay: ELISA. In general terms: ELISA stands for enzyme-linked immunosorbent assay.

Chain of methemoglobin (P69905 2-142, chain 1 of 2): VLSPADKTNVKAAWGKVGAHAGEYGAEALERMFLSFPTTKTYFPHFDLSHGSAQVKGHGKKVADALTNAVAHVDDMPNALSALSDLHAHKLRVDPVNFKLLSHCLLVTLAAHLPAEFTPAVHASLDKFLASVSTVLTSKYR
Chain of methemoglobin (chain, as listed by the source, chain 2 of 2): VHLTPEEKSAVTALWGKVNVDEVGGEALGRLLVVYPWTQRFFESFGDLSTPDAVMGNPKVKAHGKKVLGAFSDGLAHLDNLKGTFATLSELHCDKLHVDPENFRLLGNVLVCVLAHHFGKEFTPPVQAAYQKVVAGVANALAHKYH

B1: Shr (protein)
chain: QEPLVQSQLVTTVALTQDNRLLVEEIGPYASQSAGKEYYKHIEKIIVDNDVYEKSLEGERTFDINYQGIKINADLIKDGKHELTIVNKKDGDILITFIKKGDKVTFISAQKLGTTDHQDSLKKDVLSDKTVPQNQGTQKVVKSGKNTANLSLITKLSQEDGAILFPEIDRYSDNKQIKALTQQITKVTVNGTVYKDLISDSVKDTNGWVSNMTGLHLGTKAFKDGENTIVISSKGFEDVTITVTKKDGQIHFVSAKQKQHVTAEDRQSTKLDVTTLEKAIKEADAIIAKESNKDAVKDLAEKLQVIKDSYKEIKDSKLLADTHRLLKDTIESYQAGEVSINNLTEGTYTLNFKANKENSEESSMLQGAFDKRAKLVVKADGTMEISMLNTALGQFLIDFSIESKGTYPAAVRKQVGQKDINGSYIRSEFTMPIDDLDKLHKGAVLVSAMGGQESDLNHYDKYTKLDMTFSKTVTKGWSGYQVETDDKEKGVGTERLEKVLVKLGKDLDGDGKLSKTELEQIRGELRLDHYELTDISLLKHAKNITELHLDGNQITEIPKELFSQMKQLRFLNLRSNHLTYLDKDTFKSNAQLRELYLSSNFIHSLEGGLFQSLHHLEQLDLSKNRIGRLCDNPFEGLSRLTSLGFAENSLEEIPEKALEPLTSLNFIDLSQNNLALLPKTIEKLRALSTIVASRNHITRIDNISFKNLPKLSVLDLSTNEISNLPNGIFKQNNQLTKLDFFNNLLTQVEESVFPDVETLNLDVKFNQIKSVSPKVRALIGQHKLTPQKHIAKLEASLDGEKIKYHQAFSLLDLYYWEQKTNSAIDKELVSVEEYQQLLQEKGSDTVSLLNDMQVDWSIVIQLQKKASNGQYVTVDEKLLSNDPKDDLTGEFSLKDPGTYRIRKALITKKFATQKEHIYLTSNDILVAKGPHSHQKDLVENGLRALNQKQLRDGIYYLNASMLKTDLASESMSNKAINHRVTLVVKKGVSYLEVEFRGIKVGKMLGYLGELSYFVDGYQRDLAGKPVGRTKKAEVVSYFTDVTGLPLADRYGKNYPKVLRMKLIEQAKKDGLVPLQVFVPIMDAISKGSGLQTVFMRLDWASLTTEKAKVVKETNNPQENSHLTSTDQLKGPQNRQQEKTPTSPPSAATGIANLTDLLAKKATGQSTQETSKTDDTDKAEKLKQLVRDHQTSIEGKTAKDTKTKKSDKKHRSNQQSNGEESSSRYHLIAGLSSFMIVALGFIIGRKTLFK
modifications: holoShr (heme-bound), ferric hemoglobin (metHb)
As for B1, the Kd worked out at 50 nM. In other words, the double-digit nanomolar range.

One may read the Kd as the equilibrium constant for the complex coming apart. A higher Kd goes with weaker binding.

The values above are taken from publication PMC3359286 (2012).
